Measurements reported in patent US20140050720A1, “ULTRALONG COMPLEMENTARITY DETERMINING REGIONS AND USES THEREOF” (THE SCRIPPS RESEARCH INSTITUTE, priority 2012, published 2014).

What was measured:
CXCR1-U2OS = biological target: T1, CXCR1-U2OS (Homo sapiens, UniProt P25024); assay: Flow cytometry binding to CXCR1 expressing cells; settings: CXCR1-U2OS cells, cell culture supernatant containing expressed IgG, anti-Human Fc detection
T1 construct: host or cells: U2OS-derived CXCR1 cell line, purchased
T1 sequence (P25024 1-350): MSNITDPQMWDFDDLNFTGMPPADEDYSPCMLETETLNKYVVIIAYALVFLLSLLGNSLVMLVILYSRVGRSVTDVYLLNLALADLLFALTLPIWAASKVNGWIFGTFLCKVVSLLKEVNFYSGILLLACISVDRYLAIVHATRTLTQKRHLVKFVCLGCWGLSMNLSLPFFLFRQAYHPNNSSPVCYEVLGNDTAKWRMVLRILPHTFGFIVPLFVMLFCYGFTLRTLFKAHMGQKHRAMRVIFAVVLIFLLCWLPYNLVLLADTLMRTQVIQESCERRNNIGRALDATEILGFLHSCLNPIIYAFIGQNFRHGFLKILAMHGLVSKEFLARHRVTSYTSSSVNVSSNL
Description: Briefly, a cell line expressing functionally validated CXCR1 derived from U2OS cells was obtained from DiscoveRx and cultured per manufacturer's instructions (Cat#93-0226C3, DiscoveRx Corporation, Freemont, Calif.). The parental cell line U20S was obtained from ATCC and cultured under the same conditions as the CXCR1 cells. Cell culture supernatants from Example 2 above were then tested for binding to cells by flow cytometry. The adherent U20S or CXCR1-U20S cells were dissociated with Accutase (Innovative Cell Technologies, Inc., San Diego, Calif.), neutralized with an equal volume of media containing 10% serum, centrifuged at 1000 g, and resuspended in PBS with 2% BSA. Next, cells were dispensed into microtiter plates to achieve between 30,000 to 300,000 cells per well, centrifuged again, and resuspended in cell culture supernatant containing expressed IgG, or a dilution of IgG-containing cell culture supernatant. A fluorescent-conjugated anti-Human Fc antibody was used to detect binding of the expressedBLV1H12-IL8 fusion proteins to cells.

Human mPB CD34+ cells = assay: Proliferative activity on human granulocyte progenitors (flow cytometry); format: cell-based; settings: for Number of CD45RA− CD41−: 7 days
Description: Human mPB CD34^+ cells were purchased from AllCells. Cells were resuspended in HSC expansion medium (StemSpan SFEM, StemCell Technologies) supplemented with 1× antibiotics and the following recombinant human cytokines thrombopoietin, IL6, Flt3 ligand, and stem cell factor (100 ng/mL, R & D Systems), then plated in 96-well plates (1000 cells per well), with varied concentrations of BLV1H12-bGCSF fusion antibodies. Cells were cultured for 7 days at 37° C. in a 5% CO2 incubator, then analyzed by flow cytometry to measure cell number and expression of CD45ra and CD41. Cells were stained in staining medium (HBSS supplemented with 2% FBS and 2 mM EDTA) at 4° C. for 1 h with PECy7 anti-CD45ra and eFluor 450 anti-CD41 (eBiosciences), then washed with staining medium and analyzed. Multicolor analysis for cell phenotyping was performed on a LSR II flow cytometer (Becton Dickinson). FIGS. 10A-10E and Tables 9-10 show the human granulocyte progenitor cell proliferative activities of the Ab-GCSF fusion antibodies.

mice neutrophils = assay: Neutrophils counts in mice; format: in vivo; settings: mice blood, 10th day post-injection, neutrophils among white blood cells
Description: On the 10th day after injection of BLV1H12-bGCSF fusion antibodies into mice for PK study, blood samples were drawn from the mice and stained using the Diff Quick Staining Kit (Thermo Fisher Scientific, IL). Neutrophils and white blood cells were counted under microscope and the percentages of neutrophils were analyzed. FIGS. 12A-12B and Table 12 show proliferative activities of BLV1H12-bGCSF fusion antibodies on mice neutrophils that are blood stained and counted at the 10th day post-injection.

GLP-1 receptor (GLP-1R) = biological target: T2, GLP-1 receptor (GLP-1R) (Homo sapiens, UniProt P43220); assay: GLP-1R activation, cAMP responsive luciferase reporter in HEK293 cells; format: cell-based; settings: HEK293 cells expressing GLP-1R, 24 h
T2 construct: expressed in transfected cells; host or cells: HEK293 cells expressing surface GLP-1R and a cAMP responsive luciferase reporter
T2 sequence (P43220 24-463, species assumed): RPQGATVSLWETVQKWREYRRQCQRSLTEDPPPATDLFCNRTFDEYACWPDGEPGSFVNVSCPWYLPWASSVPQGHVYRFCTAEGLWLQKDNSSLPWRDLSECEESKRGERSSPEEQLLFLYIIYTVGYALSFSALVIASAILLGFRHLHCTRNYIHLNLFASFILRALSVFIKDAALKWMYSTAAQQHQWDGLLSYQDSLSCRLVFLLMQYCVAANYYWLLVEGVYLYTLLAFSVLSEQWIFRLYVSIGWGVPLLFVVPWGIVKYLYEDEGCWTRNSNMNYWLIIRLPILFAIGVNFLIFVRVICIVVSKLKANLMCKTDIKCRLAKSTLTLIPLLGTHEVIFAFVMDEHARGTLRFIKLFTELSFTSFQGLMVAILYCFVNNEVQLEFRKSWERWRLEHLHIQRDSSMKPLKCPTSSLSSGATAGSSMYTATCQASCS
Description: HEK293 cells expressing surface GLP-1R and cAMP responsive luciferase reporter gene were seeded in 384 well plates at a density of 5000 cells per well. […] Subsequently, luciferase assay was performed using One-Glo luciferase reagent according manufacture's instruction (Promega).
HEK293 cells expressing surface GLP-1R and cAMP responsive luciferase reporter gene were seeded in 384 well plates at a density of 5000 cells per well. After 24 h incubation at 37° C. with 5% CO2, cells were treated with various concentrations of peptides and BLV1H12-GLP-1 clip fusion proteins and incubated for another 24 h. Subsequently, luciferase assay was performed using One-Glo luciferase reagent according manufacture's instruction (Promega).

TF-1 cells = assay: Proliferation assay on TF-1 cells (AlamarBlue); format: cell-based; settings: 72 h
Description: TF-1 cells were obtained from American Type Culture Collection (ATCC), VA, and cultured in RPMI-1640 medium supplemented with 10% fetal bovine serum (FBS), penicillin, streptomycin and 2 ng/mL granulocyte-macrophage colony-stimulating factor (GM-CSF). For proliferation assay, TF-1 cells were washed three times with RPMI-1640 medium and resuspended in RPMI-1640 medium with 10% FBS and penicillin and streptomycin at a density of 1.5×10^5 cells/ml. Cells were plated in 96-well plates and treated with varied concentrations of BLV1H12-hEPO fusion antibodies. After 72 h of incubation at 37° C. with 5% CO2, cells viabilities were measured using AlamarBlue (Invitrogen) assay following manufacture's instruction. FIG. 21 and Table 18 show the proliferative activity of Ab-hEPO fusion antibodies on TF1 cells.

B1: Ab: bovine BLV1H12 antibody with ultralong CDR3, no inserted polypeptide; heavy chain SEQ ID NO: 24, light chain SEQ ID NO: 23 (antibody)
heavy: QVQLRESGPSLVKPSQTLSLTCTASGFSLSDKAVGWVRQAPGKALEWLGSIDTGGNTGYNPGLKSRLSITKDNSKSQVSLSVSSVTTEDSATYYCTSVHQETKKYQSCPDGYRERSDCSNRPACGTSDCCRVSVFGNCLTTLPVSYSYTYNYEWHVDVWGQGLLVTVSS
light: QAVLNQPSSVSGSLGQRVSITCSGSSSNVGNGYVSWYQLIPGSAPRTLIYGDTSRASGVPDRFSGSRSGNTATLTISSLQAEDEADYFCASAEDSSSNAVFGSGTTLTVLGQPKSPPSVTLFPPSTEELNGNKATLVCLISDFYPGSVTVVWKADGSTITRNVETTRASKQSNSKYAASSYLSLTSSDWKSKGSYSCEVTHEGSTVTKTVKPSECS
- Median Arbitrary Fluorescence Units (AFU) (CXCR1-U2OS): 4 AFU
- human granulocyte progenitor cell proliferative activity (Human mPB CD34+ cells): lack of proliferative activity
- Number of CD45RA− CD41− (Human mPB CD34+ cells; 0.28959 ng/mL): 3666
- Number of CD45RA− CD41− (Human mPB CD34+ cells; 0.86877 ng/mL): 3839
- Number of CD45RA− CD41− (Human mPB CD34+ cells; 2.60631 ng/mL): 3852
- Number of CD45RA− CD41− (Human mPB CD34+ cells; 23.45679 ng/mL): 3519
- Number of CD45RA− CD41− (Human mPB CD34+ cells; 70.37037 ng/mL): 3541
- Number of CD45RA− CD41− (Human mPB CD34+ cells; 211.11111 ng/mL): 3606
- Number of CD45RA− CD41− (Human mPB CD34+ cells; 5700 ng/mL): 4100
- Percentage of Neutrophil (mice neutrophils): 18.81
- RLU (luciferase reporter) (GLP-1 receptor (GLP-1R); 1.26953 nM): 5200
- RLU (luciferase reporter) (GLP-1 receptor (GLP-1R); 2.53906 nM): 5000
- RLU (luciferase reporter) (GLP-1 receptor (GLP-1R); 5.07813 nM): 5600
- RLU (luciferase reporter) (GLP-1 receptor (GLP-1R); 10.15625 nM): 5500
- RLU (luciferase reporter) (GLP-1 receptor (GLP-1R); 20.3125 nM): 5380
- RLU (luciferase reporter) (GLP-1 receptor (GLP-1R); 40.625 nM): 4600
- RLU (luciferase reporter) (GLP-1 receptor (GLP-1R); 81.25 nM): 6140
- RLU (luciferase reporter) (GLP-1 receptor (GLP-1R); 162.5 nM): 5760
- RLU (luciferase reporter) (GLP-1 receptor (GLP-1R); 325 nM): 5600
- RLU (luciferase reporter) (GLP-1 receptor (GLP-1R); 650 nM): 5800
- RLU (luciferase reporter) (GLP-1 receptor (GLP-1R); 1300 nM): 14000
- F.I. (AlamarBlue, cell viability) (TF-1 cells; 0.00236 nM): 4274.07
- F.I. (AlamarBlue, cell viability) (TF-1 cells; 0.01178 nM): 4267.586
- F.I. (AlamarBlue, cell viability) (TF-1 cells; 0.05888 nM): 3905.529
- F.I. (AlamarBlue, cell viability) (TF-1 cells; 0.2944 nM): 4091.452
- F.I. (AlamarBlue, cell viability) (TF-1 cells; 1.472 nM): 4109.106
- F.I. (AlamarBlue, cell viability) (TF-1 cells; 7.36 nM): 4071.234
- F.I. (AlamarBlue, cell viability) (TF-1 cells; 36.8 nM): 4100.011
- F.I. (AlamarBlue, cell viability) (TF-1 cells; 184 nM): 4413.497
- F.I. (AlamarBlue, cell viability) (TF-1 cells; 4.71E−04 nM): 4223.257
- F.I. (AlamarBlue, cell viability) (TF-1 cells; 9.42E−05 nM): 4108.119
